Measured values from paper PMC7515630 (2020).

Molecular target: GST-LOV2GIVe (L) (Avena sativa | , UniProt O49003)

- Kd: 270 nM
B1: His-Gαi3 (rat) (natural protein)
chain: MGCTLSAEDKAAVERSKMIDRNLREDGEKAAKEVKLLLLGAGESGKSTIVKQMKIIHEDGYSEDECKQYKVVVYSNTIQSIIAIIRAMGRLKIDFGEAARADDARQLFVLAGSAEEGVMTSELAGVIKRLWRDGGVQACFSRSREYQLNDSASYYLNDLDRISQTNYIPTQQDVLRTRVKTTGIVETHFTFKELYFKMFDVGGQRSERKKWIHCFEGVTAIIFCVALSDYDLVLAEDEEMNRMHESMKLFDSICNNKWFTDTSIILFLNKKDLFEEKIKRSPLTICYPEYTGSNTYEEAAAYIQCQFEDLNRRKDTKEVYTHFTCATDTKNVQFVFDAVTDVIIKNNLKECGLY
